One substance from US11732043 can be followed below.

In assay [1] the target is human LAG-3 (huLAG-3), full length, expressed on the cell surface (human) (UniProt P18627).
For assay [2] the target is unchanged. This is another data set of the same source.
Assay [3] has the same target. Description: method of determination not stated; legend of the FACS binding figure (293FF-LAG-3 cells, activated human T-cells). In general terms: A flow cytometer gives signals particle by particle.
For assay [4] the target is unchanged. The assay can be described thus: FACS titration on activated human T cells, detection with PE-labelled anti-IgG F(ab')2 [right panel Activated T cells].

Read-outs that look alike come from different tables or passages of the source.

Chain of human LAG-3 (huLAG-3), full length, expressed on the cell surface (human) (P18627 23-525): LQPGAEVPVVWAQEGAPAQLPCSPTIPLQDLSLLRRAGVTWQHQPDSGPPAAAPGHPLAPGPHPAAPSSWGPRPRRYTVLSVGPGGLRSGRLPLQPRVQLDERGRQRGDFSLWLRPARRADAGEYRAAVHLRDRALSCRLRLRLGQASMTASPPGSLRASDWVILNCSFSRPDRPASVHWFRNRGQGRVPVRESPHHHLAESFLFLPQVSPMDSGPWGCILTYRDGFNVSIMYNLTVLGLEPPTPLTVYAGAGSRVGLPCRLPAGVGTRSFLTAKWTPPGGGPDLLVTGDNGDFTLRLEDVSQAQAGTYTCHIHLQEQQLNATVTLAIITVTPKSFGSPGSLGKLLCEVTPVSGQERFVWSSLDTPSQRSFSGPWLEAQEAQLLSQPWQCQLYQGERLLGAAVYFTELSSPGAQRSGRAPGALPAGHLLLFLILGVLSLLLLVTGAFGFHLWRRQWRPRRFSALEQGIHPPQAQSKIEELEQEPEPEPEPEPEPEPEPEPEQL

In general, EC50 (read off the curve) refers to the concentration that produces a half-maximal response. Low values mean a more potent agent, high ones a less potent agent. By Kd is commonly meant a measure of binding affinity in units of concentration. Low readings indicate tighter binding, high ones weaker binding. For “PG7431, anti-LAG-3 antibody 25F7 produced in a human IgG1 format”, the values for the EC50 (read off the curve) in assay [1], in assay [2] and in assay [4] were 0.1 µg/mL, 0.1 µg/mL and 0.04 µg/mL, respectively. The substance also came in with a Kd in assay [3] of 0.2 nM.
